We go through 4 molecules from patent publication US20190359710A1 (FRIEDRICH ALEXANDER UNIVERSIT T ERLANGEN N RNBERG, published 2019).

Assay [1] concerns the target T1, human CD123 (alpha chain of the interleukin-3 receptor) (human, UniProt P26951 19-378).
T1 construct: also called 239 CD123+; HEK293.123
The assay is described as follows: calibrated flow cytometry on CD123-transfected HEK293 cells. Here is the method: (§1) The remaining triplebodies (a), (b), (d) and (f) from the above list were further analyzed. Equilibrium binding constants (KD) of each of the component scFvs carried in these triplebodies were determined by calibrated flow cytometry (Table 5). Thermo-stability in human serum was evaluated by incubation in human serum at 37° C. in vitro, and the binding ability to CD33, CD16 and CD123 on antigen single-positive mammalian cells was measured by FACS-analysis. Residual binding capacity (in % of the starting value) was evaluated after incubation for various lengths of time (Table 5).
(§2) In the top 2 rows the variant humanized according to AHo was used, in the bottom 2 rows the variant humanized according to RK was used. U937 cells are single-positive for CD33; CHO16-10 cells are single-positive (stably transfected) variants for hu CD16; […] are a stably transfected variant of HEK293, single-positive for CD123; MOLM13 cells are a stable, human AML-derived cell line double-positive for CD123 and CD33. n = number of independent experiments performed. Numbers in the table are arithmetic means from n separate measurements ± the Standard Error of the Mean (SEM).
In general terms: In flow cytometry, cells or beads pass a laser one at a time.

Assay [2] addresses T2, human CD33 (human, UniProt P20138 18-364).
T2 construct: whole, on cells; also called U937 CD33+
The assay is described as follows: calibrated flow cytometry on U937 cells (CD33 single-positive). Here is the method: as §1, §2

Assay [3] addresses T3, human CD16 (human, UniProt P08637 17-254).
T3 construct: whole, on cells; also called hu CD16; CHO16-10 CD16+
The assay is described as follows: calibrated flow cytometry on CHO16-10 cells (CD16 single-positive). As for the experimental part:
as §1, §2

For assay [4], the target named is T3, human CD16. The assay is described as follows: affinity for CD16, method not named in the table (antigen on mammalian cells by the text).
Assay [5] addresses T2, human CD33. The assay is described as follows: affinity for CD33, method not named in the table (antigen on mammalian cells by the text).
Assay [6] concerns the target T1, human CD123 (alpha chain of the …). The assay is described as follows: affinity for CD123, method not named in the table (antigen on mammalian cells by the text).
Assay [7] addresses T3, human CD16. The assay is described as follows: cytofluorimetry on CHO cells stably transfected with CD16.

T2 sequence (P20138 18-364): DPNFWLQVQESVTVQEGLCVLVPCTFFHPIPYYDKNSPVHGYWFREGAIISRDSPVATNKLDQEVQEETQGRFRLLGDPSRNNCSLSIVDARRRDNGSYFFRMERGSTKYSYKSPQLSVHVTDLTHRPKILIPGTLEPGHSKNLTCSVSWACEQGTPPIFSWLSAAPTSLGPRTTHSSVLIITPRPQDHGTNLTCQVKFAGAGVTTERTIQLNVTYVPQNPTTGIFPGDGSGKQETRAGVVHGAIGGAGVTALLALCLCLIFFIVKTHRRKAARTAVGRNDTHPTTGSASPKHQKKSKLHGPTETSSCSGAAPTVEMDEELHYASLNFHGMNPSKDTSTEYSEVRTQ
T1 sequence (P26951 19-378 limits assumed): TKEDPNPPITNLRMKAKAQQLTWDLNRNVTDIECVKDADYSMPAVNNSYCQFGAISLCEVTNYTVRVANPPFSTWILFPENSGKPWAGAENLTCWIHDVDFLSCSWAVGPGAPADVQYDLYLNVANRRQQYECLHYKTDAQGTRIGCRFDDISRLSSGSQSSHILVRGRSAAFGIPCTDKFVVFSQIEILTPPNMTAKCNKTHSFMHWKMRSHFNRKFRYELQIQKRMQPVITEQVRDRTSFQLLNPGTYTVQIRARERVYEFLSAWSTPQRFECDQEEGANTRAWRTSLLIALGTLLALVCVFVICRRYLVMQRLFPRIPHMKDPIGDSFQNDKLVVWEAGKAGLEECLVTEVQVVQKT
T3 sequence (P08637 17-254): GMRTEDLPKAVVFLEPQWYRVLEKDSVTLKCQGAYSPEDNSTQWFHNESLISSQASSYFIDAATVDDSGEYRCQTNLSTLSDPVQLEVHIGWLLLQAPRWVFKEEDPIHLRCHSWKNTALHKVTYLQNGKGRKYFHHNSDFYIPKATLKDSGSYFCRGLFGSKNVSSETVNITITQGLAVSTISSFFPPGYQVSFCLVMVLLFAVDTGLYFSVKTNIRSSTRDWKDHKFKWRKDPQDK

B1: triplebody hu[33-ds16-123] (other)
chain: EVQLVESGGGLIQPGGSLRLSCAASGFPLTSYGVSWVRQPPGKGLEWLGVIWGDGSTNYHSALISRFTISRDNSKNTLYLQMNSLRAEDTAVYYCARDTYYPYYAMDYWGQGTTVTVSSGGGGSGGGGSGGGGSDIQMTQSPSSLSASVGDRVTITCKASQDVSTAVAWYQQKPGKAPKLLIYSASYRYTGVPSRFSGSGSGTDFTLTISSLQPEDFATYYCQQHYSTPLTFGQGTKLEIKRGGGGSGGGGSGGGGSGGGGSDIVLTQSPSSLSASVGDRVTITCKASQSVDFDGDSFMNWYQQKPGKAPKLLIYTTSNLESGVPSRFSASGSGTDFTLTISSLQPEDFATYYCQQSNEDPYTFGCGTKVEIKRGGGGSGGGGSGGGGSGGGGSEVQLVESGGGDVQPGGSLRLSCAFSGFSLRTSGMGVGWIRQAPGKCLEWVAHIWWDDDKRYNPSVKGRFTISKDTSSNTVYLQMNSLRAEDTAVYYCAQINPAWFAYWGQGTLVTVSSGGGGSGGGGSGGGGSGGGGSEVQLVESGGGLVQPGGSLRLSCAASGFTFTDYYMSWVRQAPGKGLEWLALIRSKADGYTTEYSASVKGRFTISRDDSKNSLYLQMNSLKTEDTAVYYCARDAAYYSYYSPEGAMDYWGQGTSVTVSSGGGGSGGGGSGGGGSDIQMTQSPSSLSASVGDRVTITCKASQNVDSAVAWYQQKPGKAPKALIYSASYRYSGVPSRFSGSGSGTDFTLTISSLQPEDFATYYCQQYYSTPWTFGQGTKVEIKR
In general, Kd refers to the free concentration of one partner at which half of the binding sites on the other are occupied at equilibrium, for simple one-to-one binding. Lower therefore signals tighter binding. With B1, the Kd in assay [1] came out at 11 nM; in the assay with human CD33 [2], 49 nM; with human CD16 [3] it was 11 nM; in the assay with human CD16 [4], 13 nM; in the assay with human CD33 [5] it was 53 nM; in assay [6], 13 nM.

B2: candidate triplebody hu[33-ds16-ds123RK] before polishing of the sequence (other, not shown: small tags and cut ends)
chain: EVQLVESGGGLIQPGGSLRLSCAASGFPLTSYGVSWVRQPPGKGLEWLGVIWGDGSTNYHSALISRFTISRDNSKNTLYLQMNSLRAEDTAVYYCARDTYYPYYAMDYWGQGTTVTVSSGGGGSGGGGSGGGGSDIQMTQSPSSLSASVGDRVTITCKASQDVSTAVAWYQQKPGKAPKLLIYSASYRYTGVPSRFSGSGSGTDFTLTISSLQPEDFATYYCQQHYSTPLTFGQGTKLEIKRGGGGSGGGGSGGGGSGGGGSDIVLTQSPSSLSASVGDRVTITCKASQSVDFDGDSFMNWYQQKPGKAPKLLIYTTSNLESGVPSRFSASGSGTDFTLTISSLQPEDFATYYCQQSNEDPYTFGCGTKVEIKRGGGGSGGGGSGGGGSGGGGSEVQLVESGGGDVQPGGSLRLSCAFSGFSLRTSGMGVGWIRQAPGKCLEWVAHIWWDDDKRYNPSVKGRFTISKDTSSNTVYLQMNSLRAEDTAVYYCAQINPAWFAYWGQGTLVTVSSGGGGSGGGGSGGGGSGGGGSEVQLVESGGGLVQPGGSLRLSCAASGFTFTDYYMSWVRQAPGKCLEWLALIRSKADGYTTEYSASVKGRFTISRDDSKNSLYLQMNSLKTEDTAVYYCARDAAYYSYYSPEGAMDYWGQGTSVTVSSGGGGSGGGGSGGGGSDIQMTQSPSSLSASVGDRVTITCKASQNVDSAVAWYQQKPGKAPKALIYSASYRYSGVPSRFSGSGSGTDFTLTISSLQPEDFATYYCQQYYSTPWTFGCGTKVEIKR
notes: the list of removed pieces may not be complete; also called variant (f)
As to B2, the Kd in assay [1] turned out to be 9 nM; in the assay with human CD33 [2], 31 nM; with human CD16 [3], 18 nM.

B3: single chain triplebody SPM-2, hu(33-ds16-ds123RK) (other)
chain: EVQLVESGGGLIQPGGSLRLSCAASGFPLTSYGVSWVRQPPGKGLEWLGVIWGDGSTNYHSALISRFTISRDNSKNTLYLQMNSLRAEDTAVYYCARDTYYPYYAMDYWGQGTTVTVSSGGGGSGGGGSGGGGSDIQMTQSPSSLSASVGDRVTITCKASQDVSTAVAWYQQKPGKAPKLLIYSASYRYTGVPSRFSGSGSGTDFTLTISSLQPEDFATYYCQQHYSTPLTFGQGTKLEIKRGGGGSGGGGSGGGGSGGGGSDIVLTQSPSSLSASVGDRVTITCKASQSVDFDGDSFMNWYQQKPGKAPKLLIYTTSNLESGVPSRFSASGSGTDFTLTISSLQPEDFATYYCQQSNEDPYTFGCGTKVEIKRGGGGSGGGGSGGGGSGGGGSEVQLVESGGGDVQPGGSLRLSCAFSGFSLRTSGMGVGWIRQAPGKCLEWVAHIWWDDDKRYNPSVKGRFTISKDTSSNTVYLQMNSLRAEDTAVYYCAQINPAWFAYWGQGTLVTVSSGGGGSGGGGSGGGGSGGGGSEVQLVESGGGLVQPGGSLRLSCAASGFTFTDYYMSWVRQAPGKCLEWLALIRSKADGYTTEYSASVKGRFTISRDDSKNSLYLQMNSLKTEDTAVYYCARDAAYYSYYSPEGAMDYWGQGTSVTVSSGGGGSGGGGSGGGGSDIQMTQSPSSLSASVGDRVTITCKASQNVDSAVAWYQQKPGKAPKALIYSASYRYSGVPSRFSGSGSGTDFTLTISSLQPEDFATYYCQQYYSTPWTFGCGTKVEIKRGGGGSHHHHHH
notes: Trispecific single-chain triplebody made of three scFvs in tandem, produced in HEK293 F cells; also called 33-ds16-ds123 (SPM-2)
With B3, the Kd with human CD16 [4] is 35 nM; with human CD33 [5], 23 nM; in assay [6] it was 32 nM.

B4: humanized CD16-specific scFv variant 1/3 (Vk1 / VH3 frameworks, LH order, (Gly4Ser)4x linker) (scFv)
chain: DIVLTQSPSSLSASVGDRVTITCKASQSVDFDGDSFMNWYQQKPGKAPKLLIYTTSNLESGVPSRFSASGSGTDFTLTISSLQPEDFATYYCQQSNEDPYTFGQGTKVEIKRGGGGSGGGGSGGGGSGGGGSEVQLVESGGGDVQPGGSLRLSCAFSGFSLRTSGMGVGWIRQAPGKGLEWVAHIWWDDDKRYNPSVKGRFTISKDTSSNTVYLQMNSLRAEDTAVYYCAQINPAWFAYWGQGTLVTVSS
B4: the Kd with human CD16 [7] is 12.7 nM.
